This passage reports percent CD69^+CD25^+ effector cells after five rounds of co-culture with TGFβ (flow cytometry) results from patent US20250228943A1.

The target of the assay is TGFβR2-IL18R redirector receptor. Description: cell-based or functional assay.
TGFβR2-IL18R redirector receptor, sequence (chain, as listed by the source): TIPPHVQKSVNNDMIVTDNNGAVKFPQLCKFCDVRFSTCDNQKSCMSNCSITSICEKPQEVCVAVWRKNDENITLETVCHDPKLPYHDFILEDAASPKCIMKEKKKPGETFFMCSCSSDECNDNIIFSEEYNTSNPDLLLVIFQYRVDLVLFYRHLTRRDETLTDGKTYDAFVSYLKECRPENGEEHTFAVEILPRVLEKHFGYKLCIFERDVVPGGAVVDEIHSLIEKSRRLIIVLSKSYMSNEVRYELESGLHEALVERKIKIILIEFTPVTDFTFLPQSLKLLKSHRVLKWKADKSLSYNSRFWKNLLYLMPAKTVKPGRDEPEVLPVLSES

TGFβ (ligand) showed a percent CD69^+CD25^+ effector cells after five rounds of co-culture with TGFβ (flow cytometry) of 61.6%.
